2 molecules from patent US20140072613A1 (published 2014) can be followed below.

Targets include Met(Y1248D)(h) (human, UniProt P08581-2 974-1408, limits assumed); MAPKAP-K3(h) (human, UniProt Q16644 1-382, limits assumed); TrkA(h) (human, UniProt P04629 441-796, limits assumed); cKit(V654A)(h) (human, UniProt P10721 544-976); cKit(D816V)(h) (human, UniProt P10721 544-976); Plk3(h) (human, UniProt Q9H4B4 58-340, limits assumed); CDK5/p35(h) (human, UniProt Q00535 1-292; Q15078 1-307); CDK5/p25(h) (human, UniProt Q00535 1-292; Q15078 99-307).

What all share (test): cell-based or functional assay
Another test concerns the target T1, TAO3(h) (human, UniProt Q9H2K8 1-314, limits assumed).
T1 sequence (looked up): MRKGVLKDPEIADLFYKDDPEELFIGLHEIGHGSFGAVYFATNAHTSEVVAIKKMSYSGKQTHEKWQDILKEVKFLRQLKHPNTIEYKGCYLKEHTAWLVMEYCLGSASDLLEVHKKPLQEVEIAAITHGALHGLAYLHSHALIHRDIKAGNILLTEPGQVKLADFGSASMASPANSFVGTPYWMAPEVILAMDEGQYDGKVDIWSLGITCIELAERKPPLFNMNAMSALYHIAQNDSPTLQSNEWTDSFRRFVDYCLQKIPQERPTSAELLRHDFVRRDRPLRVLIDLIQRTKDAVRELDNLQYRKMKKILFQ

A further test addresses T2, Flt3(D835Y)(h) (human, UniProt P36888 564-993, limits assumed).
T2 sequence (looked up): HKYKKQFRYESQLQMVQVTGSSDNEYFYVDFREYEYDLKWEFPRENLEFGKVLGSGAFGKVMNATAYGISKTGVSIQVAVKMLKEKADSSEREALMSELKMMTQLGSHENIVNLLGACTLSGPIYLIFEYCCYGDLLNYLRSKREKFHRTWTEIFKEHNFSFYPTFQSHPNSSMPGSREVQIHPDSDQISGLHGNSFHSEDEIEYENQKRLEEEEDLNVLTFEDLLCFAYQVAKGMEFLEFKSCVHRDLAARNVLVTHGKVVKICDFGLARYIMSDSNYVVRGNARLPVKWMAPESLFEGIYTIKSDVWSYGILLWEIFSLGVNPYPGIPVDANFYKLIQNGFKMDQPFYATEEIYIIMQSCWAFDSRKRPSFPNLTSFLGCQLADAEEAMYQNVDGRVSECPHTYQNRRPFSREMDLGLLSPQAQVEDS

The target of the next test is T3, CaMKIV(h) (human, UniProt Q16566 1-473).
T3 sequence (looked up): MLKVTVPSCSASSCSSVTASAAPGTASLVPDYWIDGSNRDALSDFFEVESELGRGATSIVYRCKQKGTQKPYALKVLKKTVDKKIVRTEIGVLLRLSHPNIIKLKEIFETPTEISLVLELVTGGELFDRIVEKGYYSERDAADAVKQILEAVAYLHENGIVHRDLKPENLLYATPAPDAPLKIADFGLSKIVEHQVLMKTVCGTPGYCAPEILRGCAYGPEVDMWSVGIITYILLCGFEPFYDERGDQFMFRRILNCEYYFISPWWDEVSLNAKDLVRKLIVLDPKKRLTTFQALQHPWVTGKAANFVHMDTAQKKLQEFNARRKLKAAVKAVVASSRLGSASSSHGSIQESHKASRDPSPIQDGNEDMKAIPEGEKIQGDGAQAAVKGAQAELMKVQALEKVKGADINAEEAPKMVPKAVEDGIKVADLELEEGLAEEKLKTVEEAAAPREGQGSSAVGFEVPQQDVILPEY

A further test has as its target T4, MST1(h) (human, UniProt Q13043 1-487).
T4 sequence (looked up): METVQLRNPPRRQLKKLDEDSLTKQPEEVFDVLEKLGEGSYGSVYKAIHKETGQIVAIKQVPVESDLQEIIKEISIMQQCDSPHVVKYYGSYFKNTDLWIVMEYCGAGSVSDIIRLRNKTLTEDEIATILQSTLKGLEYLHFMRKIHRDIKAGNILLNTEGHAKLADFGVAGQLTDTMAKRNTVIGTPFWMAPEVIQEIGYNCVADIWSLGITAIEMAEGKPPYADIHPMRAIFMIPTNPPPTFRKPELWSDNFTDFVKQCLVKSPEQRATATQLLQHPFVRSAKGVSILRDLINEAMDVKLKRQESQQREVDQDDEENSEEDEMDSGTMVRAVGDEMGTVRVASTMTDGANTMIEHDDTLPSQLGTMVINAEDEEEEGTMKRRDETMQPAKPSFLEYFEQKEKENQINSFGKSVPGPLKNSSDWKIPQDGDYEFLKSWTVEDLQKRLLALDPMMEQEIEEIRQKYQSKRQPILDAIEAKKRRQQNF

The target of the next test is T5, NEK3(h) (human, UniProt P51956 1-506, limits assumed).
T5 sequence (looked up): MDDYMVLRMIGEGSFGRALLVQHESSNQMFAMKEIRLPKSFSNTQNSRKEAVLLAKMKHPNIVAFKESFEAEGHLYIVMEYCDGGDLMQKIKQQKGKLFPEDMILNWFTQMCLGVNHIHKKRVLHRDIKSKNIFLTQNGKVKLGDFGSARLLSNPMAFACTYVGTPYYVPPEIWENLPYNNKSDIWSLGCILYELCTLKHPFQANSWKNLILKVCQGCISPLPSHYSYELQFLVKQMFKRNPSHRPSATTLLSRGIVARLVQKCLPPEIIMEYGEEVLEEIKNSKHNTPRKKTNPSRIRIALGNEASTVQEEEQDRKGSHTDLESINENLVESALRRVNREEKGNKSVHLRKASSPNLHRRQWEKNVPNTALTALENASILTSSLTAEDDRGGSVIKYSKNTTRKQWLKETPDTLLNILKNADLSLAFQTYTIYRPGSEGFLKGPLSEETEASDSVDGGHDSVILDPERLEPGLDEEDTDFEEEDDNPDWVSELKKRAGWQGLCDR

Chain of Plk3(h) (Q9H4B4 58-340 limits assumed): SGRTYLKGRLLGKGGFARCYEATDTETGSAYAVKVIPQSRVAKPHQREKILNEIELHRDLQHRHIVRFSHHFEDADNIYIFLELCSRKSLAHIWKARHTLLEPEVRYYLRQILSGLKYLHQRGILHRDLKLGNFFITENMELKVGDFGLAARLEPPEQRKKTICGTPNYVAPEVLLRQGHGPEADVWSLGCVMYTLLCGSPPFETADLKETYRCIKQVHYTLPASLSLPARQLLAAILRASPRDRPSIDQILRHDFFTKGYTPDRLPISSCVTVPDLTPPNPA
Chain of MAPKAP-K3(h) (Q16644 whole entry): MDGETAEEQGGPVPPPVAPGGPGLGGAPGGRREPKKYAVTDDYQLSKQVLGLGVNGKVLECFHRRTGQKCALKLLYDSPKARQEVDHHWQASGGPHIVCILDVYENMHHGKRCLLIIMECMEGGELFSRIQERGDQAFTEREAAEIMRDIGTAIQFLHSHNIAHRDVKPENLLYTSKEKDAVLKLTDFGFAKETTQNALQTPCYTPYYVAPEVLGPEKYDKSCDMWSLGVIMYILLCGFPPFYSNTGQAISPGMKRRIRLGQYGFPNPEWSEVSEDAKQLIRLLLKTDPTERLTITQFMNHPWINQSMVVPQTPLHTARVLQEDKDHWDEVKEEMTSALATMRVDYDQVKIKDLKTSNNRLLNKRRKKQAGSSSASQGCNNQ
Chain of TrkA(h) (P04629 441-796 limits assumed): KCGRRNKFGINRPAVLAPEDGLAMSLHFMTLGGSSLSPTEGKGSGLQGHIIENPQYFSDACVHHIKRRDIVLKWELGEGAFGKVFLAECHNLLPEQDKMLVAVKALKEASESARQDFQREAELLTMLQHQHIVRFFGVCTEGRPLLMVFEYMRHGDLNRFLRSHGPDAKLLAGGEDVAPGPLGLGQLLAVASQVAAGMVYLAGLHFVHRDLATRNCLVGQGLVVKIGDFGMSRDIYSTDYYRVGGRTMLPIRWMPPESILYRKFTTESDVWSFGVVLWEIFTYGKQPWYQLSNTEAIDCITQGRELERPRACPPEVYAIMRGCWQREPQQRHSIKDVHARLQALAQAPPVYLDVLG
Chain of cKit(D816V)(h) (P10721 544-976 D816V): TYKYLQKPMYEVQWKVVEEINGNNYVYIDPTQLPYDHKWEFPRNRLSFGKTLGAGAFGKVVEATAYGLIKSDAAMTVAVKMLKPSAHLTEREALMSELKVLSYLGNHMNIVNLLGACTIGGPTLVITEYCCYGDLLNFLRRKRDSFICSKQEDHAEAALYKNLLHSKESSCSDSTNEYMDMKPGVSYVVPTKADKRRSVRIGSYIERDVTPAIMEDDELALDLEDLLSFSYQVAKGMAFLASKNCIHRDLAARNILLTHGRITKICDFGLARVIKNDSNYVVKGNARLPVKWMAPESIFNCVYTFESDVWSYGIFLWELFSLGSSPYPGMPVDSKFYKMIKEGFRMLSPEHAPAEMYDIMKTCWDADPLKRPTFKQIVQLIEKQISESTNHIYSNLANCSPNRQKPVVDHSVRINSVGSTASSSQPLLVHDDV
Chain of cKit(V654A)(h) (P10721 544-976 V654A): as the sequence (P10721 544-976 D816V) above, with V111A, V273D counted along it

On to KAFAKLAARLYRKALARQLGVAA [MMI-0400], for which the “% activity, 100 µM” value with Met(Y1248D)(h) came out at 31%; in the test with TAO3(h), 67%; in the test with Flt3(D835Y)(h) it was 71%; with MAPKAP-K3(h), 7%; with CaMKIV(h), 18%; in the test with MST1(h), 6%. Also, the “% activity, 100 µM” value in the test with NEK3(h) is 85%; with TrkA(h) it was 17%; in the test with cKit(V654A)(h), 150%; in the test with cKit(D816V)(h) it was 35%; in the test with Plk3(h), 129%; with CDK5/p35(h) it was 76%. The “% activity, 100 µM” value with CDK5/p25(h) was determined as 192%.

With FAKLAARLYRKALARQLGVAA [MMI-0300], the “% activity, 100 µM” value was 102% in the test with Met(Y1248D)(h); 77% with TAO3(h); 80% in the test with Flt3(D835Y)(h); 3% with MAPKAP-K3(h); 17% with CaMKIV(h); 14% with MST1(h). The “% activity, 100 µM” value was determined as 92% in the test with NEK3(h); 25% in the test with TrkA(h); 134% with cKit(V654A)(h); 60% with cKit(D816V)(h); 127% with Plk3(h); 79% with CDK5/p35(h). Also, the “% activity, 100 µM” value with CDK5/p25(h) came out at 89%.
